Measurements: US20100291155A1, “ALLERGY VACCINE COMPOSITION FOR MUCOSAL ADMINISTRATION” (ALK-Abello A/S, priority 2008, published 2010)
Entries after “also recorded” stand apart in the source; their conditions may differ.

What was measured:
nDer p 1 [1] = biological target: T1, nDer p 1 (Dermatophagoides pteronyssinus, UniProt P08176); experiment: Proteolytic activity of purified nDer p 1 pools in presence or absence of E64 (Z-LLE-AMC substrate); assay type: biochemical, D. pteronyssinus; settings: for enzymatic activity of Der p 1 pool: DTT as reducing agent, absence of E64, 0.1 mM Z-LLE-AMC, 37° C.
T1 construct: Der p 1 has only been found in its mature form in the D. pteronyssinus faecal particles; from tissue; host or cells: D. pteronyssinus mite material
T1 sequence (P08176 99-320): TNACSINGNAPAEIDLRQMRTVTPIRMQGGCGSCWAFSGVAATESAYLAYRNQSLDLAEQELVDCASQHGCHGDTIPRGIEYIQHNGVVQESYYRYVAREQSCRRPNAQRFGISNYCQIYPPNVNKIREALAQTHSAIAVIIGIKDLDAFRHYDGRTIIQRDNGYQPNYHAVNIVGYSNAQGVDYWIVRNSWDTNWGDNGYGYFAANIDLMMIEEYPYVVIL
Experimental: (§1) The enzymatic activity of nDer p 1 was evaluated using the peptide substrate Z-LLE linked to the fluorescent group AMC. […] When Der p 1 is added, it cleaves the bond between AMC and the peptide sequence and the fluorescence increases considerably. Therefore the product formation was evaluated in terms of increase in fluorescence.
(§2) All activity assays were performed on a Spectra Max instrument (GeminiXS Molecular Devises) at a temperature of 37° C. The fluorescence was measured using an excitation wavelength (λex) of 350 nm and emission wavelength (λem) of 450 nm. The Spectra Max instrument was set to automix before the first read and in between reads. The enzymatic activity was measured in RFU, relative fluorescent units. Using the software SoftMax® PRO 4.3 LS, the initial velocity of the reaction (V0) was estimated from the maximal slope of the progress curve.
(§3) Stock solutions of assay buffer (50 mM Tris (Sigma), 5 mM EDTA (Fluka)) and 1 M DTT (Merck) were made once and kept at +5° C. and −20° C. respectively. DTT was kept in aliquots of 55 μl, and when necessary DTT was added to the assay buffer just before use.
(§4) The total volume applied for each well in the micro titer plate (Corning, 96-well non-binding black polystyrene plate) amounted to 200 μl. The reaction was always started by the addition of 50 μl of 0.1 mM or 1 mM substrate diluted in assay buffer, and the fluorescence was measured continuously for 20-90 minutes.
An enzymatic assay in the presence or absence of the cysteine protease specific inhibitor E64 was used in order to verify the identity of the purified protein as cysteine protease. One aliquot of nDer p 1 was pre-incubated for 1 hour at 37° C. with 25 μM E64 dissolved in assay buffer, while another aliquot was not. Afterwards the substrate was added at 0.1 mM concentration. The fluorescence was measured for 20 minutes. The concentration of nDer p 1 in the assay was 2.6 μM.

nDer p 1 [2] = biological target: T1, nDer p 1; assay type: biochemical, D. pteronyssinus
Experimental: as §1, §2, §3, §4
It was evaluated whether nDer p 8, as a glutathione S-transferase, could catalyse the activation of nDer p 1 by GSH. In this assay, nDer p1 was kept at 1.3 μM and the GSH concentration at 100 μM (physiological concentration in the airways). nDer p 8 was added at four different concentrations: 0.4 μM, 0.6 μM, 0.8 μM and 1.2 μM. The last two components to be added to the well were GSH quickly followed by the substrate. The reaction was followed during 90 minutes.

nDer p 1 [3] = biological target: T1, nDer p 1; assay type: biochemical, D. pteronyssinus; remark: listed apart in the source
Experimental: as §1, §2, §3, §4
It was tested whether glutathione (GSH) could activate nDer p 1, and whether the activation was dose-dependent. The activity of 1.3 μM nDer p 1 was determined in the presence of different GSH concentrations of 0.5 mM, 1.0 mM, 5.0 mM, 10.0 mM and 25.0 mM. As a control, the activity was also measured in the presence of 5 mM DTT. The fluorescence was measured for 90 minutes.

[4] = proteolytically active Der p 1 versus Der p 1 inactivated with E64, cited from earlier work
[5] = system: confluent airway epithelial cells; settings: in vitro, Wan et al. 1999; cited from earlier work
[6] = 0.1 mM GSH, nDer p 8 0.4-1.2 μM

CC(C)C[C@H](NC(=O)[C@H]1O[C@@H]1C(=O)O)C(=O)NCCCCN=C(N)N (relative stereo) [E64, L-trans-epoxysuccinyl-leucylamido(4-guanidino)butane, reference compound]
inhibition of nDer p 1 proteolytic activity (nDer p 1 [1]; 25 μM E64, pre-incubated 1 hour at 37° C., 2.6 μM nDer p 1): completely inhibited; also recorded: entirely inhibited

nDer p 8: glutathione S-transferase from Dermaphagoides pteronyssinus, 25589 Da, 219 amino acids
time until activity differentiated from the test without nDer p 8 (nDer p 1 [2]; 0.4 μM nDer p 8, 0.1 mM GSH): over 30 minutes | time after which activity increased (nDer p 1 [2]; 1.2 μM Der p 8, 0.1 mM GSH): approximately 8 minutes | velocity of the reaction at the end of the assay versus nDer p 8 concentration (nDer p 1 [2]; 0.1 mM GSH, FIG. 6): increases significantly | effect of Der p 8 on Der p 1 activity (activation by GSH) (nDer p 1 [2]; [6]): higher; also recorded: enhances the activation | effect of Der p 8 on lag time of Der p 1 activation (nDer p 1 [2]; [6]): shorter

N[C@@H](CCC(=O)N[C@@H](CS)C(=O)NCC(=O)O)C(=O)O [GSH, Glutathione]
activation of nDer p 1 by GSH (nDer p 1 [3]; 1.3 μM nDer p 1, GSH 0.5-25.0 mM, 90 minutes): dose-dependent | time after which nDer p 1 activity evolves (nDer p 1 [3]; 5.0 mM GSH): approx. 8 minutes | time after which nDer p 1 activity boosts (nDer p 1 [3]; 10.0 mM GSH): 6 min | time after which nDer p 1 activity increases notably (nDer p 1 [3]; 25.0 mM): 3 min | correlation between initial velocity of nDer p 1 activity and GSH concentration (nDer p 1 [3]; FIG. 4): approximate linear correlation | lag time of nDer p 1 activation (time required to detect enzyme activity) (nDer p 1 [3]; GSH 0.1-0.5 mM (physiological concentrations in the airways)): around 30 minutes | speed of nDer p 1 activation compared with DTT (nDer p 1 [3]; control 5 mM DTT): slower than the activation by DTT | Der p 1 activity when activated by GSH (nDer p 1 [2]; 0.1 mM GSH, no Der p 8): very low | lag time of Der p 1 activation (nDer p 1 [2]; 0.1 mM GSH, no Der p 8): approximately 30 minutes

B1: nDer p 1: major house dust mite allergen, a 25371 Da papain-like cysteine protease purified from D. pteronyssinus (protein, UniProt P08176 99-320, looked up)
Peptidase 1: T1 sequence (P08176 99-320)
nDer p 1 activity when GSH is absent (nDer p 1 [3]; no GSH): no activity | Der p 1 activity alone (nDer p 1 [2]; 1.3 μM nDer p 1, substrate present, no reducing agent): no activity | lung inflammation ([4]; mice): notably higher | total IgE level in the circulation ([4]; sensitized mice, intranasal): significantly higher | effect on intercellular tight junctions [5]: causes disruption of intercellular tight junctions

B2: Pool 2: second flow-through peak of nDer p 1 from the SBTI-agarose column (protein, UniProt P08176 99-320, looked up)
Peptidase 1: T1 sequence (P08176 99-320)
modifications: SBTI-agarose flow-through pool 2
enzymatic activity of Der p 1 pool (nDer p 1 [1]): did not show any activity | enzymatic activity of Der p 1 pool (nDer p 1 [1]; listed as second pool): did not show any significant activity

B3: nDer p 1 pool 1: first flow-through peak of nDer p 1 from the SBTI-agarose column (protein, UniProt P08176 99-320, looked up)
Peptidase 1: T1 sequence (P08176 99-320)
modifications: SBTI-agarose flow-through pool 1
enzymatic activity of Der p 1 pool (nDer p 1 [1]): there was activity | enzymatic activity of Der p 1 pool (nDer p 1 [1]; listed as first pool): clear activity
